Experiment [1] concerns the target T1, HLA-A*24:02 molecule (product of HLA-A*24:02 gene) on C1R-A24 cells (human).
T1 construct: MHC class I molecule emptied of peptide; the peptide under test reassembles with heavy chain and added b2m; assembly stained with antibody 17A12
In words: flow cytometry, acid-stripped C1R-A24 cells with added b2m, peptide dilution series, 17A12 staining. The method, then: First, C1R-A24 cells were exposed to acidic conditions of pH 3.3 for 30 seconds to dissociate and remove endogenous peptides which were originally bound to the HLA-A*24:02 molecule and a light chain, β2m, which was commonly associated with HLA class I molecules. After neutralization, purified β2m was added to the C1R-A24 cells, which was then added to peptide dilution series. The mixtures were each then incubated on ice for 4 hours. The 3-molecule assembly (MHC-pep) consisting of the HLA-A*24:02 molecule, the peptide, and β2 m which had been reasociated during the incubation was stained with a fluorescent labeled monoclonal antibody, 17A12, recognizing the assembly.
Subsequently, the number of MHC-pep's per C1R-A24 cell (which is proportional to the fluorescent intensity of the above fluorescent antibody) was quantitatively measured using a fluorescent cell analyzer, FACScan (Becton, Dickinson and Company). The binding dissociation constant, Kd value, between the HLA-A*24:02 molecule and the peptide was calculated from the average fluorescent intensity per cell using a method as published in a paper (Udaka et al., Immunogenetics, 51, 816-828, 2000) by the present inventor.

The target of experiment [2] is HLA-A*02:06 molecule (product of HLA-A*02:06 gene) on RA2.6 cells (human). In words: flow cytometry, RA2.6 cells, peptide dilution series, BB7.2 staining. The method, then: First, the RA2.6 cells were cultured overnight at 26° C. to accumulate the HLA-A*02:06 molecules unbound to the peptide on the cell surface. Any of peptide dilution series was added thereto for binding at 26° C. for 60 minutes.
Subsequently, the mixture was cultured at 35° C. for 4 hours, resulting in the denaturation of the empty HLA-A*02:06 molecule unbound to the peptide and the loss of its steric structure. A fluorescent labeled monoclonal antibody, BB7.2, specifically recognizing a peptide-bound HLA-A*02:06 molecule, was added thereto, which was then incubated on ice for 20 minutes to stain the cells.
(§1) Thereafter, the amount of fluorescence per cell was measured using a flow cytometer, and the dissociation constant, Kd value, was calculated using a method as published in a paper by the present inventor (Udaka et al., Immunogenetics, 51, 816-828, 2000).

The target of experiment [3] is T2, HLA-A*02:01 molecule (product of HLA-A*02:01 gene) on T2 cells (human).
T2 construct: MHC class I molecule on TAP-deficient T2 cells; stabilisation read with antibody BB7.2
In words: flow cytometry, T2 cells with added b2m, peptide dilution series, BB7.2 staining. Here is the method: T2 cells and purified β2m were added to stepwise dilution series of a peptide whose binding capacity was to be measured, which was then incubated at 37° C. for 4 hours.
as §1

B1: GPC3-derived peptide GYICSHSPV (SEQ ID NO: 6) (peptide)
peptide: GYICSHSPV
notes: Synthetic peptide; only the start position in GPC3 is printed
Consider B1, for which the “Binding Experiment Data (log Kd)” value in experiment [1] was -6.55 log Kd (concentration unit not printed).

B2: GPC3-derived peptide SALDINECL (SEQ ID NO: 3) (peptide)
peptide: SALDINECL
notes: as for B1
On to B2, for which the “Binding Experiment Data (log Kd)” value in experiment [2] is -6.32 log Kd (concentration unit not printed).

B3: GPC3-derived peptide LFDSLFPVI (SEQ ID NO: 2) (peptide)
peptide: LFDSLFPVI
notes: as for B1
In the case of B3, the “Binding Experiment Data (log Kd)” value was -7.43 log Kd (concentration unit not printed) in experiment [1] and -5.07 log Kd (concentration unit not printed) in experiment [3].

B4: GPC3-derived peptide MVNELFDSL (SEQ ID NO: 1) (peptide)
peptide: MVNELFDSL
notes: Synthesized by Fmoc solid-phase method, purity 95% or more; the end is derived from the length of 9
On to B4, for which the “Binding Experiment Data (log Kd)” value in experiment [2] was -6.14 log Kd (concentration unit not printed); in experiment [1], -4.7 log Kd (concentration unit not printed); in experiment [3], -5.31 log Kd (concentration unit not printed).

B5: GPC3-derived peptide SLQVTRIFL (SEQ ID NO: 4) (peptide)
peptide: SLQVTRIFL
notes: as for B1
Regarding B5, the “Binding Experiment Data (log Kd)” value in experiment [2] is -5.21 log Kd (concentration unit not printed); in experiment [1], -5.34 log Kd (concentration unit not printed); in experiment [3] it was -6.21 log Kd (concentration unit not printed).

B6: GPC3-derived peptide GMIKVKNQL (SEQ ID NO: 10) (peptide)
peptide: GMIKVKNQL
notes: as for B1
On to B6, for which the “Binding Experiment Data (log Kd)” value is -3.36 log Kd (concentration unit not printed) in experiment [2], -6.9 log Kd (concentration unit not printed) in experiment [1] and -4.76 log Kd (concentration unit not printed) in experiment [3].

B7: GPC3-derived peptide ALNLGIEVI (SEQ ID NO: 7) (peptide)
peptide: ALNLGIEVI
notes: as for B1
With B7, the figures for the “Binding Experiment Data (log Kd)” value in experiment [2], in experiment [1] and in experiment [3] were -4.16 log Kd (concentration unit not printed), -3.96 log Kd (concentration unit not printed) and -5.92 log Kd (concentration unit not printed), respectively.

B8: GPC3-derived peptide ARLNMEQLL (SEQ ID NO: 11) (peptide)
peptide: ARLNMEQLL
notes: as for B1
As to B8, the “Binding Experiment Data (log Kd)” value was -2.76 log Kd (concentration unit not printed) in experiment [2], -5.2 log Kd (concentration unit not printed) in experiment [1] and -3.84 log Kd (concentration unit not printed) in experiment [3].

B9: GPC3-derived peptide LLQSASMEL (SEQ ID NO: 8) (peptide)
peptide: LLQSASMEL
notes: as for B1
Consider B9, for which the “Binding Experiment Data (log Kd)” value was -5.88 log Kd (concentration unit not printed) in experiment [2], -5.49 log Kd (concentration unit not printed) in experiment [1] and -6.14 log Kd (concentration unit not printed) in experiment [3].

B10: GPC3-derived peptide KLTTTIGKL (SEQ ID NO: 9) (peptide)
peptide: KLTTTIGKL
notes: as for B1
Regarding B10, the “Binding Experiment Data (log Kd)” value was -5.03 log Kd (concentration unit not printed) in experiment [2], -5.21 log Kd (concentration unit not printed) in experiment [1] and -4.97 log Kd (concentration unit not printed) in experiment [3].

For the origin of these results see patent US20190062389A1 (CYTLIMIC, published 2019).
